Assay results from US20120165249A1.

What was measured:
[1] = target: HIV-1 CA protein (capsid) (HIV-1); assay: cell-based or functional assay
[2] = target: HIV-1 gag polyprotein (HIV-1); assay: cell-based or functional assay

Substance: NYAD-1 (peptide)
- inhibition of mature-like particle formation from purified CA protein in vitro (EM) (fold molar equivalent) [1]: 1
- release of immature-like particles from gag-transfected 293T cells (p24 ELISA) (fold reduction at 50 µM) [2]: 72
- release of mature-like particles from gag-pol transfected 293T cells (p24 ELISA) (fold reduction at 50 µM) [2]: 67
